Source: patent US20240199730A1 (AstraZeneca / MedImmune, published 2024)

T1: N-terminally tagged biotinylated cyno TSLP (cynomolgus, UniProt A0A7N9CAT7 29-159, biotinylated (site not stated))
T1 construct: Captured on a streptavidin C1 chip in the Biacore assay; also called recombinant mammalian cell-expressed cyno TSLP; not shown: N-terminal tag
T1 sequence: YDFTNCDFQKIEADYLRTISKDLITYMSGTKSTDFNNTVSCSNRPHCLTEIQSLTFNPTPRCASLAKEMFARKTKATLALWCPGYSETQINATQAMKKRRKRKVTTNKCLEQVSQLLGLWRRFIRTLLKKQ

B1: cyno TSLP (ligand, cynomolgus)
chain: YDFTNCDFQKIEADYLRTISKDLITYMSGTKSTDFNNTVSCSNRPHCLTEIQSLTFNPTPRCASLAKEMFARKTKATLALWCPGYSETQINATQAMKKRRKRKVTTNKCLEQVSQLLGLWRRFIRTLLKKQ
notes: Cyno TSLP as used in solution in the KinExA assay; also called Cynomolgus TSLP
B2: Fab 1 (Fab, V domains shown)
VH: QMQLVESGGGVVQPGRSLRLSCAASGFTFRTYGMHWVRQAPGKGLEWVAVIWYDGSNKHYADSVKGRFTITRDNSKNTLNLQMNSLRAEDTAVYYCARAPQWELVHEAFDIWGQGTMVTVSS
VL: SYVLTQPPSVSVAPGQTARITCGGNNLGSKSVHWYQQKPGQAPVLVVYDDSDRPSWIPERFSGSNSGNTATLTISRGEAGDEADYYCQVWDSSSDHVVFGGGTKLTVLG
notes: The claims call it an IgG1 Fab; It was injected as monomerized Fab1 in the Biacore assay; also called anti-TSLP Fab

Tests used:
Fab 1 [1] = target: B2; experiment: KinExA, cyno TSLP titrated into 1000 pM fixed Fab 1 (filled diamonds); free Fab 1 captured on hu TSLP-coated beads; the midpoint depends on the fixed Fab concentration
Excerpt: (§1) The KinExA methodology has been reviewed (Darling and Brault, 2004).
(§2) The KinExA software was used to calculate the equilibrium dissociation constant (KD).

Fab 1 [2] = target: B2; experiment: KinExA, cyno TSLP titrated into 40 pM fixed Fab 1 (open squares); free Fab 1 captured on hu TSLP-coated beads; the midpoint depends on the fixed Fab concentration
Excerpt: as §1, §2

cyno TSLP = target: B1; experiment: KinExA, solution phase; global 1:1 fit to two datasets
Excerpt: as §1, §2

[3] = target: T1, N-terminally tagged biotinylated cyno …; experiment: SPR, Biacore 8K; biotinylated TSLP on streptavidin C1 chip, Fab1 injected; 1:1 Langmuir model
Protocol: Streptavidin surfaces were prepared using lyophilized streptavidin that was reconstituted with D-PBS. Briefly, streptavidin was diluted to 4 μg mL-1 in 10 mM sodium acetate pH 4.5 and covalently immobilized to three flow cell surfaces of a S Series C1 biosensor chip by standard amine coupling methods. A final streptavidin surface of 170 response units (RUs) was achieved. The amine coupling reagents were also used to prepare a control blank surface, with no immobilized streptavidin, to serve as a reference surface within each flow cell. […] The low level of analyte binding ensured that mass-transport induced artefacts were minimized, especially when combined with the relatively fast, 50 μL min-1 assay flow-rates used during the kinetics measurement steps. […] Multiple buffer-only injections were made under the same conditions throughout the experiment to allow for double reference processing of the final sensorgram sets.
The chip surface was fully regenerated by flowing two 30 second pulses of 10 mM glycine pH 1.7. Binding affinity and kinetics were determined using 1:1 Langmuir model.

Row | IC50 (read off the curve) (Fab 1 [1]) [nM] | IC50 (read off the curve) (Fab 1 [2]) [nM] | Kd (cyno TSLP) [nM] | Kd [3] [nM] | Binder
1 | ~0.6 | ~0.04 | – | – | B1
2 | – | – | 0.0136 | 0.0884 | B2
